In patent US20210032365A1 (Chugai, published 2021):
Substitutions are numbered along the chain they refer to. Numbers in names are those of the source. Blank lines part the entries; values can stand above or below the binder they belong to.

Columns and labels:
[1] = biological target: T1, human C1s (human, UniProt P09871 16-688); assay: SPR, Ab captured; pH 7.4, 1.2 mM Ca
T1 construct: also called hC1s; serum-derived human C1s (CompTech)
T1 sequence: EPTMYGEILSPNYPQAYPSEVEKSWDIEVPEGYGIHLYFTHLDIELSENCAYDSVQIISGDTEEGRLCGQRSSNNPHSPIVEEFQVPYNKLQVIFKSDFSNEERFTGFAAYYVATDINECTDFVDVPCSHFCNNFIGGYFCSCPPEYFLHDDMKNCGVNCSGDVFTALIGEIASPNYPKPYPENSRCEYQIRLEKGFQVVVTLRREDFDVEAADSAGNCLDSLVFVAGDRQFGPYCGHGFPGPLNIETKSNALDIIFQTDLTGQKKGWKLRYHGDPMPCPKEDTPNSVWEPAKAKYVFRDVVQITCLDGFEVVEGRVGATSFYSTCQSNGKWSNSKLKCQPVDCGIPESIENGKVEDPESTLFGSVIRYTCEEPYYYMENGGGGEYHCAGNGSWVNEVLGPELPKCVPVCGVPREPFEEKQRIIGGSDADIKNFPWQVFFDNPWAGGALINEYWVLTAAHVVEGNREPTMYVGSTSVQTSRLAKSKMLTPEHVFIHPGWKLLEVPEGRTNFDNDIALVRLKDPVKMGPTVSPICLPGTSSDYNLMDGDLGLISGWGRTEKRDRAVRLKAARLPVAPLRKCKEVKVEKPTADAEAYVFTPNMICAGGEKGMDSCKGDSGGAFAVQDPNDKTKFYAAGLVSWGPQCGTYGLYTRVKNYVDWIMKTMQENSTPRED
Description: (§1) Each antibody was captured onto the sensor surface by protein A/G. Antibody capture levels were aimed at 200 resonance unit (RU). Serum-derived human C1s (CompTech) or recombinant C1s prepared in EXAMPLE 1 was injected at 50 nM, followed by dissociation. The sensor surface was regenerated in each cycle with 10 mM Glycine-HCl, pH 1.5. […] The ratio of KD 5.8+ to KD 7.4+(“KD 5+/7+”) and that of KD 5.8− to KD 7.4+(“KD 5−/7+”) were calculated. When the KD 5+/7+ or KD 5−/7+ of a variant is larger than that of the parent antibody IPN009VH2-SG4GK/IPN009VK3-SK1, that variant is considered to be “pH”- or “pH and Ca”-dependent, respectively. When binding response in 5(+) buffer and/or in 5(−) buffer of a variant is much lower than that of IPN09VH2/IPN009VK3, that variant is also considered as “pH”- and/or “pH and Ca”-dependent. Therefore, such mutations are effective to generate “pH”- and/or “pH and Ca”-dependent antibody. To further enhance “pH” and/or “pH and Ca” dependency, a combination of histidine mutations was conducted. Antibodies with combinations of histidine mutations were evaluated using Biacore by the method described above.
(§2) C1_1IPN92H0033 (SEQ ID NO: 17)-SG4GK/IPN93L0024 (SEQ ID NO: 18)-SK1 (IPN92H0033/IPN93L0024) was selected for further optimization. Histidine, Lysine, Arginine, aspartic acid, glutamic acid, and glutamine scanning was conducted for CDRs and certain positions of FRs of IPN92H0033/IPN93L0024. Variants with a mutation were generated and purified, and evaluated using Biacore by the method mentioned above. All variants were evaluated using Biacore as mentioned above. Mutations that improved “pH” and/or “pH and Ca” dependency were selected for the combination.

[2] = biological target: T2, human C1s (human, UniProt P09871 16-688); assay: SPR; KD at pH 5.8 (1.2 mM Ca) over KD at pH 7.4 (1.2 mM Ca)
T2 construct: Analyte in the Biacore assays; also called hC1s; serum-derived human C1s (CompTech)
T2 sequence: T1 sequence
Description: as §1, §2

[3] = biological target: T2, human C1s; assay: SPR (Biacore T200, 37C), Ab captured on protein A/G; pH 5.8, 1.2 mM Ca
Description: as §1, §2

[4] = biological target: T2, human C1s; assay: SPR; KD at pH 5.8 (3 uM Ca) over KD at pH 7.4 (1.2 mM Ca)
Description: as §1, §2

[5] = biological target: T2, human C1s; assay: SPR (Biacore T200, 37C), Ab captured on protein A/G; pH 5.8, 3 uM Ca
Description: as §1, §2

- Kd [1]: 1.65 nM
- koff [1]: 0.000632 s⁻¹
- kon [1]: 383000 M⁻¹ s⁻¹
B1: C1_IPN92H0282-SG4GK/IPN93L0024-SK1 (antibody, human IgG4 S228P, kappa, name in Kabat numbering, V domains shown)
VH: EVMLVESGGGLVKPGGSLRLSCAASGFTFSNYAMSWVRQAPGKGLEWVATISSGGSHTYELDSVDERFTISRDNSKDTLYLQMNSLRAEDTALYYCARLFTKHAMDYWGQGTLVTVSS
VL: QIVLTQSPATLSLSPGERATLSCTASSSVSSSYLHWYQQKPGKAPKLWIYSTSNLASGVPSRFSGSGSGTDYTLTISSLQPEDFATYYCHQYYRLHPITFGQGTKLEIKR
notes: also called IPN92H0282/IPN93L0024

- Kd [1]: 1.81 nM
- koff [1]: 0.00117 s⁻¹
- kon [1]: 648000 M⁻¹ s⁻¹
B2: C1_IPN92H0288-SG4GK/IPN93L0212-SK1 (antibody, human IgG4 S228P, kappa, name in Kabat numbering, V domains shown)
VH: B1 VH with E66G
VL: B1 VL with S28E, S31E, Y33R
notes: VH = IPN009VH2 with Y59E/K64D/G98K/Y99H (Kabat); also called IPN92H0288/IPN93L0212

- Kd [1]: 1.96 nM
- koff [1]: 0.000924 s⁻¹
- kon [1]: 471000 M⁻¹ s⁻¹
B3: C1_IPN92H0282-SG4GK/IPN93L0091-SK1 (antibody, human IgG4 S228P, kappa, name in Kabat numbering, V domains shown)
VH: B1 VH
VL: B1 VL with Y33R
notes: also called IPN92H0282/IPN93L0091

- Kd [1]: 1.58 nM
- koff [1]: 0.00156 s⁻¹
- kon [1]: 984000 M⁻¹ s⁻¹
B4: C1_IPN92H0286-SG4GK/IPN93L0205-SK1 (antibody, human IgG4 S228P, kappa, name in Kabat numbering)
heavy: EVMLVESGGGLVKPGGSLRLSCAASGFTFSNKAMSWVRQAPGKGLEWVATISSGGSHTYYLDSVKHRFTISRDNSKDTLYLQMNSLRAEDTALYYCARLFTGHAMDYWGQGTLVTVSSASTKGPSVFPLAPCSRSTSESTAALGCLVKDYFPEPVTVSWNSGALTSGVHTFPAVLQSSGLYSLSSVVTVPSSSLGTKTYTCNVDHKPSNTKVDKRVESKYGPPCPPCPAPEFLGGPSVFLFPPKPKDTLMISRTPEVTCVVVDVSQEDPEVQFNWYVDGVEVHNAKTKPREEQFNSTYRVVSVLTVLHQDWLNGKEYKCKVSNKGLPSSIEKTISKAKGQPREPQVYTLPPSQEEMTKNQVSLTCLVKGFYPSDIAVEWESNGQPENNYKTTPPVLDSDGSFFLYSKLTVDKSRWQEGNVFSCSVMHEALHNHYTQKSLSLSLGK
light: QIVLTQSPATLSLSPGERATLSCTASSSVSSSRLHWYQQKPGKAPKLWIYSTSNLASGVPSRFSGSGSGTDYTLTISSLQPEDFATYYCHQYHRHPPITFGQGTKLEIKRTVAAPSVFIFPPSDEQLKSGTASVVCLLNNFYPREAKVQWKVDNALQSGNSQESVTEQDSKDSTYSLSSTLTLSKADYEKHKVYACEVTHQGLSSPVTKSFNRGEC
notes: also called IPN92H0286/IPN93L0205

- KD 5(+)/7(+) [2]: 3
- koff [3]: 0.0045 s⁻¹
- kon [3]: 519000 M⁻¹ s⁻¹
- KD 5(-)/7(+) [4]: 1.83
B5: C1_IPN92H0033-SG4GK/IPN93L0024-SK1 (antibody, human IgG4 S228P, kappa)
heavy: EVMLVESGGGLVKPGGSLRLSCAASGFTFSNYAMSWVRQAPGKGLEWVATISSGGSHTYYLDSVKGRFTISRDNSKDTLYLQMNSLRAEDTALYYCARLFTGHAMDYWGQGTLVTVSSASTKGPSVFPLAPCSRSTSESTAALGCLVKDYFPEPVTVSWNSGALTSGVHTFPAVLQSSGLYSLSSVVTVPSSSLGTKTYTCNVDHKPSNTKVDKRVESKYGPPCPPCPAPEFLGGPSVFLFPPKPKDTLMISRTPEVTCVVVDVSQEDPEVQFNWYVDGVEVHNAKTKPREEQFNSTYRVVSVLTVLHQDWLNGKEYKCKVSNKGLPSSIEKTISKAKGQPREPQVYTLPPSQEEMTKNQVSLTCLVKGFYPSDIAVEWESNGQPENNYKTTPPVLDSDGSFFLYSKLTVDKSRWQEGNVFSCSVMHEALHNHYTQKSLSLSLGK
light: B4 light with R33Y, H93Y, H95L, P96H
notes: VH Y99H, VL P95H against the parent (Kabat); also called IPN92H0033/IPN93L0024

- KD 5(+)/7(+) [2]: 4.5
- Kd [3]: 12 nM
- koff [3]: 0.00634 s⁻¹
- kon [3]: 530000 M⁻¹ s⁻¹
- KD 5(-)/7(+) [4]: 1.28
- Kd [5]: 3.43 nM
- koff [5]: 2.67 s⁻¹
- kon [5]: 7.8e+08 M⁻¹ s⁻¹
B6: C1_IPN92H0091-SG4GK/IPN93L0024-SK1 (antibody, human IgG4 S228P, kappa, name in Kabat numbering, V domains shown)
VH: B1 VH with M34K, E60Y, D65K, E66G, K102G
VL: B1 VL
notes: Substitutions from IPN009VH2, Kabat numbering; also called IPN92H0091/IPN93L0024

- KD 5(+)/7(+) [2]: 1.7
- Kd [3]: 11.9 nM
- koff [3]: 0.022 s⁻¹
- kon [3]: 1.85e+06 M⁻¹ s⁻¹
- KD 5(-)/7(+) [4]: 0.79
- Kd [5]: 5.43 nM
- koff [5]: 0.00344 s⁻¹
- kon [5]: 633000 M⁻¹ s⁻¹
B7: C1_IPN92H0061-SG4GK/IPN93L0024-SK1 (antibody, human IgG4 S228P, kappa, name in Kabat numbering, V domains shown)
VH: B1 VH with F29K, E60Y, D65K, E66G, K102G
VL: B1 VL
notes: Substitutions from IPN009VH2, Kabat numbering; also called IPN92H0061/IPN93L0024

- KD 5(+)/7(+) [2]: 6.4
- Kd [3]: 23.4 nM
- koff [3]: 0.0265 s⁻¹
- kon [3]: 1.13e+06 M⁻¹ s⁻¹
- KD 5(-)/7(+) [4]: 1.54
- Kd [5]: 5.65 nM
- koff [5]: 0.00317 s⁻¹
- kon [5]: 562000 M⁻¹ s⁻¹
B8: C1_IPN92H0144-SG4GK/IPN93L0024-SK1 (antibody, human IgG4 S228P, kappa, name in Kabat numbering, V domains shown)
VH: B1 VH with H57K, E60Y, D65K, E66G, K102G
VL: B1 VL
notes: Substitutions from IPN009VH2, Kabat numbering; also called IPN92H0144/IPN93L0024
